Molecular target: the molecule itself
Test: SEC; KapD alone on the gel-filtration column; fractions 8-16 blotted with anti-KapD; size against a molecular weight marker

B1: KapD-6xHis (enzyme, B. subtilis, UniProt O05231 1-205, looked up)
chain: MTTNSLLIIDFEFTMPDGKYSPQNFFPEIIEAGIVKSIDDEVVETFSSYVRPKKFPKLTKRCKSFLKITQKQVDEGMRFEDFIRKLNELDPEKNSTIITWGNMDMKVLKQNCMFNHIPFPFKGEMRDLSLEYKNFFGDRTLTGLWKAAEEYGDSGTGTHHKALDDALTAYKLFKLVEQDKQYLEKPKPPTIGERIDLTELLKRAT
notes: KapD, 3'-exoribonuclease of the DEDDh family, Bacillus subtilis; kapD gene amplified with oligos CC073/074 and cloned in pET28a (EcoRI/SalI); also called KapD-His; His-tagged KapD; source: E. coli BL21 CodonPlus RIL (strain CCE095); in lysate (cells lysed together with the CotY strain), and purified (His-Trap, gel filtration) for KapD alone; not shown: His6, C-terminal, kept
stoichiometry N: 2

Reference: PMC11736430, “Embedding a ribonuclease in the spore crust couples gene expression to spore development in Bacillus subtilis” (Nucleic Acids Research, 2025)
